The nature of the series: total protein half-life in vivo (active degradation + dilution); higher = more stable protein.
Where [1] appears, read: E. coli NCM3722 delta-clpP delta-lon delta-hslV, growth: N-lim chemostat, doubling time 6 h.
Setting [2] is: E. coli NCM3722 delta-clpP, growth: N-lim chemostat, doubling time 6 h.
[3] abbreviates: E. coli NCM3722 delta-hslV, growth: N-lim chemostat, doubling time 6 h.
Where [4] appears, read: E. coli NCM3722 delta-lon, growth: N-lim chemostat, doubling time 6 h.
Setting [5] is: E. coli NCM3722 delta-smpB, growth: N-lim chemostat, doubling time 6 h.
Where [6] appears, read: wild type E. coli NCM3722, growth: C-lim chemostat, doubling time 3 h.
Setting [7] is: wild type E. coli NCM3722, growth: C-lim chemostat, doubling time 12 h.
Where [8] appears, read: wild type E. coli NCM3722, growth: N-lim chemostat, doubling time 12 h.
The mark [9] stands for this setting: wild type E. coli NCM3722, growth: P-lim chemostat, doubling time 6 h.
Where [10] appears, read: wild type E. coli NCM3722, growth: C-lim chemostat, doubling time 6 h.
The mark [11] stands for this setting: wild type E. coli NCM3722, growth: N-lim chemostat, doubling time 6 h.
Where [12] appears, read: wild type E. coli NCM3722, growth: P-lim chemostat, doubling time 12 h.

This is an account of results in the supplement of paper PMC11246515.

± gives the standard deviation of the averaged measurements. Where only a bound is given, the exact number is not on record here.

“MDHLPMPKFGPLAGLRVVFSGIEIAGPFAGQMFAEWGAEVIWIENVAWADTIRVQPNYPQLSRRNLHALSLNIFKDEGREAFLKLMETTDIFIEASKGPAFARRGITDEVLWQHNPKLVIAHLSGFGQYGTEEYTNLPAYNTIAQAFSGYLIQNGDVDQPMPAFPYTADYFSGLTATTAALAALHKVRETGKGESIDIAMYEVMLRMGQYFMMDYFNGGEMCPRMSKGKDPYYAGCGLYKCADGYIVMELVGITQIEECFKDIGLAHLLGTPEIPEGTQLIHRIECPYGPLVEEKLDAWLATHTIAEVKERFAELNIACAKVLTVPELESNPQYVARESITQWQTMDGRTCKGPNIMPKFKNNPGQIWRGMPSHGMDTAAILKNIGYSENDIQELVSKGLAKVED”: the “total protein half-life in vivo” value is 6.21 ± 0.21 h under setting [1]; 4.41 h under setting [2]; 4.77 ± 0.81 h under setting [3]; 4.71 h under setting [4]; 4.726 ± 0.00071 h under setting [5]; > 4 h under setting [6]. Also, the “total protein half-life in vivo” value runs as follows: under setting [7], 13 h; under setting [8], 8.76 h; under setting [9], 6.27 h.

On to “MKKKTTLSEEDQALFRQLMAGTRKIKQDTIVHRPQRKKISEVPVKRLIQEQADASHYFSDEFQPLLNTEGPVKYVRPDVSHFEAKKLRRGDYSPELFLDLHGLTQLQAKQELGALIAACRREHVFCACVMHGHGKHILKQQTPLWLAQHPHVMAFHQAPKEYGGDAALLVLIEVEEWLPPELP [P0A8B2]”, for which the “total protein half-life in vivo” value runs as follows: under setting [1], 3.99 ± 0.33 h; under setting [2], 2.898 ± 0.019 h; under setting [3], 3.03 ± 0.56 h; under setting [5], 3.68 ± 0.36 h; under setting [6], 2.46 ± 0.48 h; under setting [10], 3.84 ± 0.16 h. The “total protein half-life in vivo” value is, setting by setting: under setting [7], 5.34 h; under setting [11], 2.99 ± 0.086 h; under setting [8], 3.87 ± 0.36 h; under setting [9], 3.06 ± 0.1 h; under setting [12], 6 ± 0.6 h.

As to “MNHSLKPWNTFGIDHNAQHIVCAEDEQQLLNAWQYATAEGQPVLILGEGSNVLFLEDYRGTVIINRIKGIEIHDEPDAWYLHVGAGENWHRLVKYTLQEGMPGLENLALIPGCVGSSPIQNIGAYGVELQRVCAYVDSVELATGKQVRLTAKECRFGYRDSIFKHEYQDRFAIVAVGLRLPKEWQPVLTYGDLTRLDPTTVTPQQVFNAVCHMRTTKLPDPKVNGNAGSFFKNPVVSAETAKALLSQFPTAPNYPQADGSVKLAAGWLIDQCQLKGMQIGGAAVHRQQALVLINEDNAKSEDVVQLAHHVRQKVGEKFNVWLEPEVRFIGASGEVSAVETIS”, the “total protein half-life in vivo” value under setting [1] came to 4.93 ± 1.3 h; the “total protein half-life in vivo” value under setting [2] was determined as 3.45 ± 0.048 h; the “total protein half-life in vivo” value under setting [3] was 3.8 ± 0.13 h; the “total protein half-life in vivo” value under setting [4] was found to be 3.89 ± 0.49 h; the “total protein half-life in vivo” value under setting [5] is 3.52 ± 0.22 h; the “total protein half-life in vivo” value under setting [6] was 2.93 ± 0.053 h. For the same sequence, the “total protein half-life in vivo” value under setting [10] amounted to 4.83 ± 0.63 h; the “total protein half-life in vivo” value under setting [7] stood at 9.87 ± 0.28 h; the “total protein half-life in vivo” value under setting [11] is 3.66 ± 0.11 h; the “total protein half-life in vivo” value under setting [8] was found to be 5.41 ± 0.096 h; the “total protein half-life in vivo” value under setting [9] was found to be 4.81 ± 0.36 h; the “total protein half-life in vivo” value under setting [12] was 8.99 ± 0.82 h.

As for “MIDTTLPLTDIHRHLDGNIRPQTILELGRQYNISLPAQSLETLIPHVQVIANEPDLVSFLTKLDWGVKVLASLDACRRVAFENIEDAARHGLHYVELRFSPGYMAMAHQLPVAGVVEAVIDGVREGCRTFGVQAKLIGIMSRTFGEAACQQELEAFLAHRDQITALDLAGDELGFPGSLFLSHFNRARDAGWHITVHAGEAAGPESIWQAIRELGAERIGHGVKAIEDRALMDFLAEQQIGIESCLTSNIQTSTVAELAAHPLKTFLEHGIRASINTDDPGVQGVDIIHEYTVAAPAAGLSREQIRQAQINGLEMAFLSAEEKRALREKVAAK”, the “total protein half-life in vivo” value runs as follows: under setting [1], 5.4 ± 0.46 h; under setting [2], 4.73 ± 0.99 h; under setting [3], 4.41 ± 0.094 h; under setting [4], 5.25 ± 0.55 h; under setting [5], 4.49 ± 0.38 h; under setting [6], 2.88 ± 0.36 h. In addition, the “total protein half-life in vivo” value reads like this: under setting [7], 10.6 ± 0.3 h; under setting [11], 4.68 ± 0.59 h; under setting [8], 7.15 ± 0.088 h; under setting [9], 5.63 ± 0.2 h; under setting [12], 11 ± 0.3 h.

On to “METKNLTIGERIRYRRKNLKHTQRSLAKALKISHVSVSQWERGDSEPTGKNLFALSKVLQCSPTWILFGDEDKQPTPPVEKPVALSPKELELLELFNALPESEQDTQLAEMRARVKNFNKLFEELLKARQRTNKR”, for which the “total protein half-life in vivo” value under setting [1] was determined as 6.79 ± 1 h; the “total protein half-life in vivo” value under setting [2] amounted to 5.32 ± 0.38 h; the “total protein half-life in vivo” value under setting [3] is 5.9 ± 0.15 h; the “total protein half-life in vivo” value under setting [4] was 6.27 ± 0.067 h; the “total protein half-life in vivo” value under setting [5] was determined as 5.86 ± 0.56 h; the “total protein half-life in vivo” value under setting [6] amounted to 3.21 ± 0.043 h. Besides, the “total protein half-life in vivo” value came out at 5.25 ± 0.77 h under setting [10]; 6.96 ± 1.7 h under setting [7]; 4.971 ± 0.028 h under setting [11]; 10.2 ± 2.7 h under setting [8]; 5.33 ± 1 h under setting [9]; 10.7 ± 0.66 h under setting [12].

“MSNLTGTDKSVILLMTIGEDRAAEVFKHLSQREVQTLSAAMANVTQISNKQLTDVLAEFEQEAEQFAALNINANDYLRSVLVKALGEERAASLLEDILETRDTASGIETLNFMEPQSAADLIRDEHPQIIATILVHLKRAQAADILALFDERLRHDVMLRIATFGGVQPAALAELTEVLNGLLDGQNLKRSKMGGVRTAAEIINLMKTQQEEAVITAVREFDGELAQKIIDEMFLFENLVDVDDRSIQRLLQEVDSESLLIALKGAEQPLREKFLRNMSQRAADILRDDLANRGPVRLSQVENEQKAILLIVRRLAETGEMVIGSGEDTYV [P0ABZ1]”: the “total protein half-life in vivo” value runs as follows: under setting [1], 4.83 h; under setting [2], 5.19 h; under setting [6], 2.31 ± 0.33 h; under setting [10], 3.78 ± 0.1 h; under setting [7], 5.85 ± 0.23 h.

As to “MIKSALLVLEDGTQFHGRAIGATGSAVGEVVFNTSMTGYQEILTDPSYSRQIVTLTYPHIGNVGTNDADEESSQVHAQGLVIRDLPLIASNFRNTEDLSSYLKRHNIVAIADIDTRKLTRLLREKGAQNGCIIAGDNPDAALALEKARAFPGLNGMDLAKEVTTAEAYSWTQGSWTLTGGLPEAKKEDELPFHVVAYDFGAKRNILRMLVDRGCRLTIVPAQTSAEDVLKMNPDGIFLSNGPGDPAPCDYAITAIQKFLETDIPVFGICLGHQLLALASGAKTVKMKFGHHGGNHPVKDVEKNVVMITAQNHGFAVDEATLPANLRVTHKSLFDGTLQGIHRTDKPAFSFQGHPEASPGPHDAAPLFDHFIELIEQYRKTAK [P0A6F1]”, the “total protein half-life in vivo” value by setting is: under setting [1], 4.95 ± 1 h; under setting [2], 4.51 ± 0.39 h; under setting [3], 4.72 ± 0.13 h; under setting [4], 5.36 ± 0.35 h; under setting [5], 4.6318 ± 0.0031 h; under setting [6], 3.18 ± 0.27 h. Further, the “total protein half-life in vivo” value is, setting by setting: under setting [7], 9.87 ± 0.035 h; under setting [11], 4.466 ± 0.015 h; under setting [8], 7.43 ± 0.44 h; under setting [9], 5.95 ± 0.087 h; under setting [12], 12.1 ± 0.28 h.
